# From the supplement of paper PMC12042874
# ± gives the uncertainty stated by the source.
# Legend:
# [1] = amyloid nucleation score (Sup35N fusion, yeast selection) (log enrichment); library NNK1; higher = more nucleation; inactive = no reads after selection
# Summary of the method: (§1)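 For the nucleation score, DiMSum gave the log enrichment of output over input reads, centred on the mode score of non-aggregating sequences. Psi-negative yeast expressing Sup35N fused to peptides of 20 random codons were induced with 100 μM copper sulfate for 24 hours and grown 7 days at 30°C on medium lacking adenine and uracil. Input and output plasmid inserts were Illumina-sequenced, and sequences with under 100 input reads were excluded.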
# [2] = amyloid nucleation score (Sup35N fusion, yeast selection) (log enrichment); library NNK2; higher = more nucleation; inactive = no reads after selection
# Summary of the method: as §1
Substance,amyloid nucleation score [1],amyloid nucleation score [2]
SQKEFRKTAIKTHLMFRIHL,-0.258 ± 0.29,–
WQSFGVSGRLPYRQWSD,inactive,–
TLFRGMGYSWNVNKPDARKV,-0.403 ± 1.4,–
GFELEAIKEYFGCWPSHYRF,inactive,–
NISSNRCVNNVAPSDSSTYF,-0.091 ± 0.69,–
LIGRIGDFLA,0.097 ± 0.72,–
HSLLVMQDVCPE,0.69 ± 0.56,–
FPDYQVLLQCYLN,0.418 ± 0.38,–
RATQLF,1.81 ± 0.67,–
ISCYVRISIILFLEKMVLRA,0.033 ± 0.24,–
LIRMHTICVWDSSVIMSIMA,-0.354 ± 0.44,–
QFSCFMMFIIYE,4.16 ± 0.064,–
TFTCVITSGCDLYPLLGHIS,0.9 ± 0.4,–
INVPIWGNLQDWLVI,-0.924 ± 0.52,–
VHRIYKCALRVSRADSLIVT,inactive,–
KGNYFRVTVYSAGFIQLLMS,6.393 ± 0.049,–
RIILGETGAALWWRI,4.61 ± 0.079,–
DKERSGTKQYNSYG,-0.039 ± 0.73,–
ETMGGLE,0.107 ± 0.9,–
SHKGNPCRKIC,-0.392 ± 0.38,–
FHMAKRLYC,0.276 ± 0.46,–
YKGNKCCVKMMACWGTGCLP,1.98 ± 0.37,–
EWSFSYCGGVAFLSIEIEFL,inactive,–
LVLVNSTWCTYPCGWMCEME,0.488 ± 1.2,–
VTCWPDICRSFYMIVLHCFR,0.141 ± 0.7,–

Substance,amyloid nucleation score [1],amyloid nucleation score [2]
SSFIWMNC,-0.377 ± 0.42,–
RIGTFWRGQDKLDVFKYGVV,–,-0.236 ± 0.37
TDITKVSGTFNHSMEPIWYT,–,inactive
CMDYHICHIM,–,3.89 ± 0.11
LFCVDNVVKKGTVP,–,-0.365 ± 0.76
YMNSSLARISPRGSRCERQ,–,0.162 ± 0.38
VPLGECIPNFLSTYGGYVVS,–,-0.287 ± 0.33
SLNVVMGAD,–,-1.15 ± 0.76
FRRYYLLFVPAFCVPLKCQY,–,0.53 ± 0.66
VTLSGYRVPLTLWDFGRCLC,–,-0.565 ± 0.35
YYICDLLHSRCEVKLD,–,-0.551 ± 0.37
ALHSWFRMSSLSMYIVDMGG,–,-0.077 ± 0.76
LDITVCMRFKAPAIIWAYYF,–,-0.657 ± 0.48
VWSPYKTV,–,-0.101 ± 1.1
LFSVLL,–,-0.916 ± 1
QNEVSLEVVFVKEGVGFDRL,–,-0.665 ± 0.76
IRQFDIDITNARNKG,–,-1.62 ± 0.62
GFLQSGCPSTLLSLRKRAIL,–,0.307 ± 0.51
GLKMLFNVNLQDM,–,-0.368 ± 1
GESSPE,–,0.343 ± 0.8
GTSDSWTNVGRHYLKGVRDG,–,-1.08 ± 0.55
AGPAQQYMCMTCVTSVHTDP,–,8.84 ± 0.045
VNNGLPDCFSLRYAVHPMRL,–,-0.526 ± 0.64
KKFSSMYRSEFGNSI,–,-0.65 ± 0.41
DWPRLLNFWRY,–,-0.284 ± 1.1

Substance,amyloid nucleation score [1],amyloid nucleation score [2]
VTQRWLAFERWKLPCSLPSH,–,0.02 ± 0.79
MVHTKYPLWSNSRVLWDSVT,–,0.397 ± 0.64
TITHLSNACTYMVDIRSFTF,–,5.38 ± 0.068
DYPSKKGVVPPRLGISDKNV,–,2.86 ± 0.049
GYNLKILESIMEGSAGLMCT,–,-0.779 ± 0.33
FSCHWAIMTRSGKVEVCNNQ,–,5.47 ± 0.069
YPLCARILLNKDLWDGYLNS,–,inactive
VICVLSYADCSKLGWGHSLT,–,8.868 ± 0.043
DALGSYWMTAMTF,–,0.371 ± 0.44
GRILNAEVFGVINASDNCAD,–,-0.412 ± 0.63
WRSGGQPCVSGSWSVTNLCV,–,3.1 ± 0.092
MYVDLWFGTYRNS,–,0.532 ± 0.54
FAWGPFA,–,-0.557 ± 0.37
SGVHNYSARVG,–,-0.442 ± 0.46
RTRTYL,–,inactive
FCGQKTNFNCLDETLLIR,–,1.09 ± 0.59
VCVQDRLRC,–,0.518 ± 0.5
DLTGGVRLRRWGWTSCSGNG,–,0.404 ± 0.46
PMICEHAGHSGWH,–,1.11 ± 0.22
MCCGCVNVFFMHARHVLGWS,–,8.977 ± 0.038
DACAFVCLYWNVLTRFELMP,–,-0.458 ± 0.32
MMGLGKCR,–,1.36 ± 0.33
LPDIFLSVYKLLVYKSLLPA,–,0.073 ± 0.53
DTWVLDIMYFSLRYWVFVSV,–,0.228 ± 1
SFYVNMSSFFRSLEEV,–,inactive

Substance,amyloid nucleation score [1],amyloid nucleation score [2]
MYSLR,–,inactive
INNLRSCLSMY,–,0.562 ± 0.57
SKDRCEVQLGKFTCLFMFDY,–,-1.47 ± 0.55
HVVLTLGLRISQHRLLRYKK,–,5.64 ± 0.095
HHAHGFRPIGMCSCISMDPS,–,7.87 ± 0.059
AGLLPENYFSCILGINVVIF,–,3.13 ± 0.065
TYVHDPGFPLWLDMAKRFGL,–,0.581 ± 0.5
FGIQGWLFSNSWFLILVFFL,–,inactive
VPNYLCGDTLPEYYETPPDH,–,0.224 ± 0.4
LRASWLYYFKSKVSFGCKGD,–,-0.405 ± 0.41
DRVSVVIAGDQKPEFRRGKR,–,-0.469 ± 0.45
ICFNDILQFTS,–,-0.498 ± 0.44
WYVDSLLWEILSALECCVFM,–,inactive
WKHMSRR,–,0.639 ± 0.66
QGAVLTL,–,-1.12 ± 0.76
ITSICGIIE,–,inactive
IIFDNFLEMVAILWLLVCCY,–,-1.66 ± 0.76
RIENFVWC,–,-0.688 ± 0.63
LGLPNNGL,–,-0.187 ± 0.55
CLSPW,–,0.202 ± 0.46
RHHGVRIYMRNFGNVYVYIR,–,3.85 ± 0.11
RFFCYKSYMLLECLRIVSVC,–,-0.853 ± 0.78
KRSFVIRNLGFCALRLHISV,–,4.63 ± 0.11
FLYLIMKGPLAVKYCIKSLG,–,-0.545 ± 0.76
CHVYYVQFVLAD,–,-0.604 ± 0.76

Substance,amyloid nucleation score [1],amyloid nucleation score [2]
LNVLKNT,–,0.187 ± 0.24
NGTINALFSDEAGWSSCGYL,–,0.2 ± 0.34
VGYIMYIYDGYRVVFVGYYR,–,0.217 ± 0.65
FTRRSGSRLWTRFALGDWVA,–,inactive
NKCEIKLRKWQSSP,–,-0.337 ± 0.34
VKTRVQPRTGDLSATLLGLE,–,0.828 ± 0.48
KRNVLRVTSCHKEYSVGSVP,–,0.739 ± 0.22
SVDIKIFLQPAYFCNATAAV,–,6.435 ± 0.039
SVCVRT,–,inactive
LCHTRCDRNSSCLL,–,-0.56 ± 0.79
PVCFGIEVYDVRFVASNVPG,–,0.313 ± 0.48
MDFYCRWVVWFQEGNF,–,3.45 ± 0.058
HVYYTVNLVLVNLYPLYFFT,–,5.855 ± 0.041
GQNRKLLDLIYRMLGSLLWH,–,0.309 ± 0.8
NPVRISL,–,0.214 ± 0.28
HRLQLPHHRKGKWVLLMWGV,–,-0.44 ± 0.41
RYWLLKFNCVLWEISFCRTM,–,5.89 ± 0.07
DPKVVMLVMTDMLNFG,–,5.71 ± 0.06
HFSFTPFRTWV,–,-0.527 ± 0.27
LYLIRRHESCCLPNIR,–,0.039 ± 0.46
RTVDELTRRWWSKRRMGMSW,–,2.03 ± 0.25
CWRNTDLKGLGNWPSLLASV,–,0.589 ± 0.57
YSVSVRLA,–,-0.553 ± 0.63
TRTQMW,–,0.739 ± 0.43
KNSLKVLLNRRLRVCGSQLN,–,-0.309 ± 0.45

Substance,amyloid nucleation score [1],amyloid nucleation score [2]
SSCVRLDELCAMMSMSWESQ,–,1.26 ± 0.38
KVLTCRIYSIWVLIC,–,0.009 ± 0.32
CMKEMLVMLTCYICVSKSLI,–,3.66 ± 0.079
QYYELWSFTDWVWDLWGVQS,–,-0.568 ± 0.63
AAAYCYRTEEW,–,1.6 ± 0.22
LPILCTWLM,–,-0.347 ± 0.55
CFFRKMPHCRLTTWRRVASI,–,0.675 ± 0.25
VGICFDNRMVTWHLSDRQSP,–,3.58 ± 0.072
VYFDNGISK,–,-1.6 ± 1.1
AYSFDKHKNKGLSTASVGHM,–,0.894 ± 0.55
CRCISVPCVVFVV,–,-0.142 ± 0.79
SRGVS,–,-0.433 ± 0.43
FFEFKDNSSWFK,–,3.3 ± 0.052
HCHAVDSLNVHFKEFIHRMN,–,inactive
IAVAKYLTLKDVVLNSWNSY,–,7.624 ± 0.036
AWNLFLFQSRL,–,4.7 ± 0.073
ESTWSFNSLYIDLIKVWSDV,–,-0.889 ± 0.76
VGFGVFVV,–,0.213 ± 0.24
SFPRRMPSD,–,2.38 ± 0.071
LYTLTENRLRLYMIYAGLRW,–,-0.362 ± 0.5
SCLLSL,–,0.506 ± 0.45
TRLCRNLAASPGFLWTVYKS,–,inactive
RGDHLGCSII,–,-0.101 ± 0.79
HNGVCSSRARVSLWAGRCWK,–,0.742 ± 0.22
YGKADCPSLGVYMRL,–,2.25 ± 0.15

Substance,amyloid nucleation score [1],amyloid nucleation score [2]
RIGSGTGRPWN,–,-1.02 ± 0.39
RYLSTLSVLYRTTSCRA,–,inactive
LWIGWSLKPKVDVRLCHWVK,–,0.173 ± 1.1
MSYVLMVFASPIMYVTHPIA,–,1.89 ± 0.2
GVVNLTD,–,3.01 ± 0.061
DFRCADCLKINFSIVQSK,–,7.257 ± 0.05
QIIRPCVRRDKTGFIALVMG,–,1.27 ± 0.49
MCGFFVIIMRC,–,-0.652 ± 0.74
VMRRVVKKQSWYLIKGLSM,–,0.802 ± 0.32
NTRNDWQS,–,2.13 ± 0.15
KEFYGKRIFRCLYDVLVVLF,–,-1.25 ± 0.54
CNTCLLSFG,–,0.814 ± 0.25
HYLAFVCIIFSLLRLITQPM,–,2.53 ± 0.18
AKVWDCGSPKVQYIVARQVV,–,0.042 ± 0.46
VTDCMSVRITLLMCSHGFKH,–,7.302 ± 0.063
TYDWEFFNDYYQM,–,0.161 ± 0.77
YASCLSSKLCDEDNPTYW,–,-0.488 ± 0.39
SKHWTCS,–,0.426 ± 0.57
CERWRFI,–,-0.02 ± 1.1
TGKFL,–,inactive
RYSFSLMGFDSKGNKVGIMS,–,3.65 ± 0.06
AFFACRNASSHTLWMLG,–,5.91 ± 0.07
GVREYMH,–,0.544 ± 0.28
